Patent US20040209839, “Human peroxisome proliferator activated receptor gamma” (published 2004)

Tests used:
hPPARgamma = hPPARgamma (Homo sapiens, UniProt P37231 SEQ:20-494); experiment: EMSA; hPPARgamma alone, no complex; conditions: tags: T3 coupled reticulocyte lysate (Promega), label: 32P end
[1] = target: hPPARgamma/hRXRalpha heterodimer (Homo sapiens, UniProt P37231;P19793 P37231:31-505,P19793:1-462); experiment: EMSA; strong retarded complex; conditions: tags: hPPARgamma in vitro translated, hRXRalpha baculovirus/Sf21 expressed, label: 32P end
hPPARgamma/hRXRalpha heterodimer, sequence (P37231 31-505, chain 1 of 2): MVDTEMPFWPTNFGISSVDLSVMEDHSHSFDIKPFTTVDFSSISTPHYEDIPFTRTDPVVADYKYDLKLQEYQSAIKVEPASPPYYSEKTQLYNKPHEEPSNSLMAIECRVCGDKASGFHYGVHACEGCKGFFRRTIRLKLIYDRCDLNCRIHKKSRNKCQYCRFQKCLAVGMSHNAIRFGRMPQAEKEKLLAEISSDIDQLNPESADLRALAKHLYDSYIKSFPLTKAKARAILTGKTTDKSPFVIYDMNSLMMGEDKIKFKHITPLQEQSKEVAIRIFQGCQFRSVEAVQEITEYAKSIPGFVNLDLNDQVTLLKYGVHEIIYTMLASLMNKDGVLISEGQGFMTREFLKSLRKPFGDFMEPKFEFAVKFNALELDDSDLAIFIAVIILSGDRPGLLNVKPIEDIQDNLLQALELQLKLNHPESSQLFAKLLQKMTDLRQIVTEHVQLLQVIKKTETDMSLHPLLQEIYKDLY
hPPARgamma/hRXRalpha heterodimer, sequence (P19793 whole entry, chain 2 of 2): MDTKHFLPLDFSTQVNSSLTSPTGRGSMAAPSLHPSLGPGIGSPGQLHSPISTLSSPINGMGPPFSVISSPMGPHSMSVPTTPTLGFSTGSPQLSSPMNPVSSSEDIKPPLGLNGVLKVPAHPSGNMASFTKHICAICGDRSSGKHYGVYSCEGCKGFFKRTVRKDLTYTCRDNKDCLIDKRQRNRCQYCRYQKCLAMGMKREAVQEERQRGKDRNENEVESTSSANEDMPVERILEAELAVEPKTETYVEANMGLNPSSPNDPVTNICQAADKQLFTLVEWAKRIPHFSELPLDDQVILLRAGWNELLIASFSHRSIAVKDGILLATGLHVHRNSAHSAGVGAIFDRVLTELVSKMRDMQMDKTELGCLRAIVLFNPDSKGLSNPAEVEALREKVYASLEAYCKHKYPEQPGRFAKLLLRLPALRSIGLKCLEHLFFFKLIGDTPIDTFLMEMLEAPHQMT

hPPARgamma, sequence (P37231 31-505): as the sequence (P37231 31-505, chain 1 of 2) above

B1: hydratase (bifunctional enzyme) PPRE (dsDNA)
DNA 1: GATCCCTTTGACCTATTGAACTATTACCTACATTA
DNA 2: TAATGTAGGTAATAGTTCAATAGGTCAAAGGGATC
hPPARgamma
  binding result: no binding
[1]
  binding result: binds

B2: AOX PPRE (dsDNA)
DNA 1: CTAGCGATATCATGACCTTTGTCCTAGGCCTC
DNA 2: CTAGGAGGCCTAGGACAAAGGTCATGATATCG
hPPARgamma; 5' CTAG overhangs
  binding result: no binding
[1]; 5' CTAG overhangs
  binding result: binds

B3: ApoA1 A site (dsDNA)
DNA 1: GATCCCCACTGAACCCTTGACCCCTGCCCTGCAGCA
DNA 2: TGCTGCAGGGCAGGGGTCAAGGGTTCAGTGGGGATC
hPPARgamma
  binding result: no binding
[1]
  binding result: binds
